Measurements as given in US20250361298A1 (published 2025).

T1: LY6G6D
T1 chain: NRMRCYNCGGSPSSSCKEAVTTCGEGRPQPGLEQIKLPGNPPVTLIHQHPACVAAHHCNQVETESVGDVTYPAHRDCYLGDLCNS


Key:
Assay in all cases: BLI
LY6G6D = biological target: T1, LY6G6D
cp1342 = biological target: cp1342
cp1352 = biological target: cp1352
cp1339 = biological target: cp1339
cp1340 = biological target: cp1340
cp1286 = biological target: cp1286
cp1292 = biological target: cp1292
cp1284 = biological target: cp1284
cp1285 = biological target: cp1285
cp1353 = biological target: cp1353
cp1338 = biological target: cp1338

Kd (LY6G6D) [nM]	Kd (cp1342) [nM]	Kd (cp1352) [nM]	Kd (cp1339) [nM]	Kd (cp1340) [nM]	Kd (cp1286) [nM]	Kd (cp1292) [nM]	Kd (cp1284) [nM]	Kd (cp1285) [nM]	Kd (cp1353) [nM]	Kd (cp1338) [nM]	Binder
0.255											CB21-499-177 (antibody, V domains shown) VH: EVQLVESGGGVVQPGRSLRLSCAASGFTFSSYGMHWVRQAPGKGLEWVAVIWYDASNKEYAPSVKGRFTISRDNSKNTLYLQMNSLRAEDTAIYYCARPGEGDYWGQGTLVTVSS VL: DIQMTQSPSSLSASVGDRVTITCRASQGVRNDFGWFQQKPGKAPKRLIYGASSLQSGVPSRFSGSGSGTEFTLTISSLQPEDFATYYCLQQNSYPWTFGQGTKLEIK
0.337											CB21-499 (antibody, V domains shown) VH: EVQLVESGGGVVQPGRSLRLSCAASGFTFSSYGMHWVRQAPGKGLEWVAVIWYDGSNKDYADSVKGRFTISRDNSKNTLYLQMNSLRAEDTAIYYCARPGEGDYWGQGTLVTVSS VL: DIQMTQSPSSLSASVGDRVTITCRASQGVRNDFGWFQQKPGKAPKRLIYGASSLQSGVPSRFSGSGSGTEFTLTISSLQPEDFATYYCLQQNSYPWTFGQGTKLEIK
	1.73	1.54	0.824	2.52	1.12	6.97	40.7	1.78	21.8	0.695	cp203 (Fc fusion, biotinylated for BLI capture (site not stated)) NRMRCYNCGGSPSSSCKEAVTTCGEGRPQPGLEQIKLPGNPPVTLIHQHPACVAAHHCNQVETESVGDVTYPAHRDCYLGDLCNS
